According to PMC9584953:
Where a chain is given by its changes, count along the chain named.

Key:
Assay in all cases: EMSA
Details in all cases: EMSA: 50 mM Tris-HCl pH 7.5, 50 mM KCl, 5 mM CaCl2, 5% glycerol, 0.0025% NP-40, 0.8 ug poly(dI-dC), room temperature 30 min
[1] = tested on: T1, OmpR A136D A136D (Salmonella (strain not given in material)), ORF:d8521a76
T1 sequence: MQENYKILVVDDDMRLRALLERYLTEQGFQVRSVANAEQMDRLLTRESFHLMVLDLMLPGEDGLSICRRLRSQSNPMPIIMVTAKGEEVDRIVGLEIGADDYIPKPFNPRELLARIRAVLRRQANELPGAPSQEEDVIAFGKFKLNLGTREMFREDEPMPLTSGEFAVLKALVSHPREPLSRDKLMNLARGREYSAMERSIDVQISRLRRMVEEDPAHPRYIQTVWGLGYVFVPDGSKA

[2] = tested on: T2, OmpR Y230D Y230D (Salmonella (strain not given in material)), ORF:d8521a76
T2 sequence: T1 sequence with D136A, Y230D

[3] = tested on: T3, OmpR R182D R182D (Salmonella (strain not given in material)), ORF:d8521a76
T3 sequence: T1 sequence with D136A, R182D

[4] = tested on: T4, OmpR I138D I138D (Salmonella (strain not given in material)), ORF:d8521a76
T4 sequence: T1 sequence with D136A, I138D

[5] = tested on: T5, OmpR D55A D55A (Salmonella (strain not given in material)), ORF:d8521a76
T5 sequence: T1 sequence with D55A, D136A

CATCTTTCCATTCAAACTAACGTTTCGCTACCGTGAAAGTGCTACAAAGATAAAGATTTGGTTTCAAAAGGAAAT (double strand) [PompF (F2 and F3 OmpR sites)]
binding [1]: binds
binding [2]: binds
binding [3]: binds
binding [4]: binds
binding [5]: binds more weakly
